From the supplement of paper PMC10065799, “High-throughput profiling of sequence recognition by tyrosine kinases and SH2 domains using bacterial peptide display” (eLife, 2023)

system: c-Src; experiment: phosphorylation enrichment, bacterial display (enrichment ratio); higher = better substrate or ligand; peptides without Tyr show the background
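Note: 11-residue human phosphosite peptides and single-mutation variants displayed on the E. coli surface, counted by deep sequencing, each peptide's frequency after selection divided by its frequency in the unselected input library; frequency after pTyr selection over input frequency; kinase dosed for 20-30% of maximal phosphorylation in three min.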

Row | Sequence | phosphorylation enrichment
1 | EEQKKYYNAVK [SCN5A_Y1494_M1498V] | 0.548
2 | HNVPIYEGYGL [ACTA1_Y168_A172G] | 11.5
3 | EQKKFSNAMKK [SCN5A_Y1495_Y1495S_YF] | 0.401
4 | SDFFAYSPVQE [H6PD_Y449_R453Q_YF] | 0.611
5 | KKGIVYIFNGR [ITGAV_Y404] | 0.366
6 | DNEYAYLKAII [HNF4A_Y288] | 0.599
7 | GQAPGYSFTAA [CYCS_Y47_YF] | 0.503
8 | KFDLMYAKHAF [TUBA1A_Y399_R402H] | 0.44
9 | RGEKQYLAAPL [ALOX12_Y295] | 0.505
10 | PMFTKYGNGLL [RPGRIP1L_Y196_S199G] | 0.79
11 | KKFPDYIQIAR [SGMS2_Y59_M64R_YF] | 0.488
12 | RFVSRYIFNRE [HLA-DQB1_Y62_T60S_YF] | 0.916
13 | FIIFIYAMKKK [SLCO1B1_Y645_L643F_YF] | 1.65
14 | NQDRTYFERVR [SPEN_Y632_S635R_YF] | 0.567
15 | LRNIDYYRLDG [ATRX_Y2083] | 3.35
16 | ADRNHYRRYRR [YBX1_Y145_P149R] | 0.608
17 | SDMGQYQCLVF [AXL_Y115_T112M] | 1.97

Row | Sequence | phosphorylation enrichment
18 | DDLEVYLKHLL [SACS_Y3477] | 0.558
19 | PLQKIYNYNVL [SLC4A1_Y553_T552I] | 1.32
20 | LLEGKYEWQEV [CDKN1B_Y74_P69L] | 1.01
21 | STSYDYCRVPM [BST2_Y8] | 1.13
22 | GRLGEYDIDEV [SMS_Y134_V132G] | 0.643
23 | HITQVYGFYDE [PPP2CA_Y127_Q122H] | 12.3
24 | RFLERYIFNPE [HLA-DPB1_Y57_R61P_YF] | 0.804
25 | KSLFHHRQYSA [CPS1_Y1491_Y1491H] | 0.478
26 | KKKKQYKDKFL [CASK_Y708_YF] | 0.739
27 | DRLANYLEKVR [KRT40_Y103_S102N] | 0.395
28 | CGTPEYRAPEI [PRKACA_Y205_L206R] | 0.432
29 | EQYELYCEMGS [CBL_Y371] | 4.14
30 | DQLVKYGVNPG [TMPO_Y127] | 0.294
31 | CDIPRYIVSQL [MAST2_Y461] | 0.442
32 | PFTDPYFDFEI [ZC3H18_Y371_A368T_YF] | 5.82
33 | GMEIVYVFVKK [DNAI2_Y5_YF] | 0.627

molecular target: FGFR3 (UniProt P22607); experiment: as above
Sequence (P22607 whole entry, looked up): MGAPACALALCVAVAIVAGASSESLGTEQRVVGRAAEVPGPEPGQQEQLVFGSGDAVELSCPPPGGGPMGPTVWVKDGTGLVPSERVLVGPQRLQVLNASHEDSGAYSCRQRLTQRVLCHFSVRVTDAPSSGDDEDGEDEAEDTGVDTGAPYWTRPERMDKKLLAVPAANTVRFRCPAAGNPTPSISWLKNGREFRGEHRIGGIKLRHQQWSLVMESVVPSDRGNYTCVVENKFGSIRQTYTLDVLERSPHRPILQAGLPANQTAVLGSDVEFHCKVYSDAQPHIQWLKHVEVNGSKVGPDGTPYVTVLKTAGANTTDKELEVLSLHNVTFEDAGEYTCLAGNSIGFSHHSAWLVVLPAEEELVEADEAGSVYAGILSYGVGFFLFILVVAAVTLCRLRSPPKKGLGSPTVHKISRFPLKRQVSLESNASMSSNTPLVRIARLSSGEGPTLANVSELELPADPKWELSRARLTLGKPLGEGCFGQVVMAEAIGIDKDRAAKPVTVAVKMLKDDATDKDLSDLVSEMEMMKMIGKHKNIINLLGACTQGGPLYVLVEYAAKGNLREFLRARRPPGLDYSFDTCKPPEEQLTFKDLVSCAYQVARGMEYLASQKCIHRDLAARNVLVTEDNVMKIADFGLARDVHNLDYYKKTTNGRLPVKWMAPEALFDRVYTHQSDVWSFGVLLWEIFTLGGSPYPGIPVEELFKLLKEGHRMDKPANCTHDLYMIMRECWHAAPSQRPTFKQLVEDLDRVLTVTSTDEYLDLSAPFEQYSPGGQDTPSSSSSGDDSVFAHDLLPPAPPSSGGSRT

Row | Sequence | phosphorylation enrichment
34 | EEQKKYYNAVK [SCN5A_Y1494_M1498V] | 0.486
35 | HNVPIYEGYGL [ACTA1_Y168_A172G] | 0.941
36 | EQKKFSNAMKK [SCN5A_Y1495_Y1495S_YF] | 0.693
37 | SDFFAYSPVQE [H6PD_Y449_R453Q_YF] | 0.807
38 | KKGIVYIFNGR [ITGAV_Y404] | 0.501
39 | DNEYAYLKAII [HNF4A_Y288] | 2.4
40 | GQAPGYSFTAA [CYCS_Y47_YF] | 0.428
41 | KFDLMYAKHAF [TUBA1A_Y399_R402H] | 0.564
42 | RGEKQYLAAPL [ALOX12_Y295] | 0.341
43 | PMFTKYGNGLL [RPGRIP1L_Y196_S199G] | 0.668
44 | KKFPDYIQIAR [SGMS2_Y59_M64R_YF] | 2.26
45 | RFVSRYIFNRE [HLA-DQB1_Y62_T60S_YF] | 0.934
46 | FIIFIYAMKKK [SLCO1B1_Y645_L643F_YF] | 0.578
47 | NQDRTYFERVR [SPEN_Y632_S635R_YF] | 0.522
48 | LRNIDYYRLDG [ATRX_Y2083] | 8.11
49 | ADRNHYRRYRR [YBX1_Y145_P149R] | 0.572
50 | SDMGQYQCLVF [AXL_Y115_T112M] | 1.89

Row | Sequence | phosphorylation enrichment
51 | DDLEVYLKHLL [SACS_Y3477] | 0.697
52 | PLQKIYNYNVL [SLC4A1_Y553_T552I] | 1.04
53 | LLEGKYEWQEV [CDKN1B_Y74_P69L] | 1.48
54 | STSYDYCRVPM [BST2_Y8] | 5.34
55 | GRLGEYDIDEV [SMS_Y134_V132G] | 1
56 | HITQVYGFYDE [PPP2CA_Y127_Q122H] | 1.26
57 | RFLERYIFNPE [HLA-DPB1_Y57_R61P_YF] | 0.624
58 | KSLFHHRQYSA [CPS1_Y1491_Y1491H] | 0.412
59 | KKKKQYKDKFL [CASK_Y708_YF] | 0.55
60 | DRLANYLEKVR [KRT40_Y103_S102N] | 0.64
61 | CGTPEYRAPEI [PRKACA_Y205_L206R] | 0.825
62 | EQYELYCEMGS [CBL_Y371] | 4.12
63 | DQLVKYGVNPG [TMPO_Y127] | 0.49
64 | CDIPRYIVSQL [MAST2_Y461] | 0.618
65 | PFTDPYFDFEI [ZC3H18_Y371_A368T_YF] | 12.4
66 | GMEIVYVFVKK [DNAI2_Y5_YF] | 0.862

system: c-Abl (mouse); experiment: as above

Row | Sequence | phosphorylation enrichment
67 | EEQKKYYNAVK [SCN5A_Y1494_M1498V] | 0.574
68 | HNVPIYEGYGL [ACTA1_Y168_A172G] | 3.23
69 | EQKKFSNAMKK [SCN5A_Y1495_Y1495S_YF] | 0.375
70 | SDFFAYSPVQE [H6PD_Y449_R453Q_YF] | 0.922
71 | KKGIVYIFNGR [ITGAV_Y404] | 0.565
72 | DNEYAYLKAII [HNF4A_Y288] | 2.79
73 | GQAPGYSFTAA [CYCS_Y47_YF] | 0.504
74 | KFDLMYAKHAF [TUBA1A_Y399_R402H] | 0.573
75 | RGEKQYLAAPL [ALOX12_Y295] | 0.504
76 | PMFTKYGNGLL [RPGRIP1L_Y196_S199G] | 1.31
77 | KKFPDYIQIAR [SGMS2_Y59_M64R_YF] | 0.657
78 | RFVSRYIFNRE [HLA-DQB1_Y62_T60S_YF] | 0.867
79 | FIIFIYAMKKK [SLCO1B1_Y645_L643F_YF] | 1.52
80 | NQDRTYFERVR [SPEN_Y632_S635R_YF] | 0.538
81 | LRNIDYYRLDG [ATRX_Y2083] | 0.815
82 | ADRNHYRRYRR [YBX1_Y145_P149R] | 0.661
83 | SDMGQYQCLVF [AXL_Y115_T112M] | 1.57

Row | Sequence | phosphorylation enrichment
84 | DDLEVYLKHLL [SACS_Y3477] | 0.61
85 | PLQKIYNYNVL [SLC4A1_Y553_T552I] | 0.748
86 | LLEGKYEWQEV [CDKN1B_Y74_P69L] | 1.79
87 | STSYDYCRVPM [BST2_Y8] | 1.11
88 | GRLGEYDIDEV [SMS_Y134_V132G] | 0.881
89 | HITQVYGFYDE [PPP2CA_Y127_Q122H] | 1.58
90 | RFLERYIFNPE [HLA-DPB1_Y57_R61P_YF] | 1
91 | KSLFHHRQYSA [CPS1_Y1491_Y1491H] | 0.504
92 | KKKKQYKDKFL [CASK_Y708_YF] | 0.699
93 | DRLANYLEKVR [KRT40_Y103_S102N] | 0.469
94 | CGTPEYRAPEI [PRKACA_Y205_L206R] | 3.88
95 | EQYELYCEMGS [CBL_Y371] | 1.08
96 | DQLVKYGVNPG [TMPO_Y127] | 0.475
97 | CDIPRYIVSQL [MAST2_Y461] | 0.816
98 | PFTDPYFDFEI [ZC3H18_Y371_A368T_YF] | 1.03
99 | GMEIVYVFVKK [DNAI2_Y5_YF] | 1.22

molecular target: EPHB2 (UniProt P29323); experiment: as above
Sequence (P29323 whole entry, looked up): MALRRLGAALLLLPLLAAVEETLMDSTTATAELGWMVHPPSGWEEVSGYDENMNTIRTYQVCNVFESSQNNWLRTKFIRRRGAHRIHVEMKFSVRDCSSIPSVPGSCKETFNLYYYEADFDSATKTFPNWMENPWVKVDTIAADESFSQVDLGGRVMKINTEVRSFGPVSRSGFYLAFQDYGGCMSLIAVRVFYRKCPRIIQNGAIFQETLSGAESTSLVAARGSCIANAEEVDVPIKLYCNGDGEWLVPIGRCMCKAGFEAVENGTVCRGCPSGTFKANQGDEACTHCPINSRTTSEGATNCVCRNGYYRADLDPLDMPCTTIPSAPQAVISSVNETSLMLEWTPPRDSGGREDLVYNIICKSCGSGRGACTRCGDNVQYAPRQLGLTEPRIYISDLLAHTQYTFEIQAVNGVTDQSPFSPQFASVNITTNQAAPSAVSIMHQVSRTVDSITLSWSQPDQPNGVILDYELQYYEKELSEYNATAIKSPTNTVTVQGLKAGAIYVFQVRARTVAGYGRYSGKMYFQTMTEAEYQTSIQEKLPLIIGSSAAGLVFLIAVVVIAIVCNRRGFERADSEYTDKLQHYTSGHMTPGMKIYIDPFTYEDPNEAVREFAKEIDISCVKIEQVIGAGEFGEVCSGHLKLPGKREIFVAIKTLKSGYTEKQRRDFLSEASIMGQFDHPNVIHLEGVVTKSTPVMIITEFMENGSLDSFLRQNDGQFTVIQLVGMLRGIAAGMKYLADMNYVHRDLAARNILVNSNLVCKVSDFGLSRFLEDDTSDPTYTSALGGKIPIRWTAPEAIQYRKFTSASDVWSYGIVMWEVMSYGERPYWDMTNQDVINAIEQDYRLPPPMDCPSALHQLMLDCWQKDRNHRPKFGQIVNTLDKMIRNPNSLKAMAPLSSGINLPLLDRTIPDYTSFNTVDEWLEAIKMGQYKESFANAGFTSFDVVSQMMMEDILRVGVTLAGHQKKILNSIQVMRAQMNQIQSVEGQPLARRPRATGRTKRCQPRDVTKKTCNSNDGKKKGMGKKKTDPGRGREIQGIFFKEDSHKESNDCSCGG

Row | Sequence | phosphorylation enrichment
100 | EEQKKYYNAVK [SCN5A_Y1494_M1498V] | 0.433
101 | HNVPIYEGYGL [ACTA1_Y168_A172G] | 41.9
102 | EQKKFSNAMKK [SCN5A_Y1495_Y1495S_YF] | 0.345
103 | SDFFAYSPVQE [H6PD_Y449_R453Q_YF] | 0.686
104 | KKGIVYIFNGR [ITGAV_Y404] | 0.507
105 | DNEYAYLKAII [HNF4A_Y288] | 0.97
106 | GQAPGYSFTAA [CYCS_Y47_YF] | 0.427
107 | KFDLMYAKHAF [TUBA1A_Y399_R402H] | 0.543
108 | RGEKQYLAAPL [ALOX12_Y295] | 0.461
109 | PMFTKYGNGLL [RPGRIP1L_Y196_S199G] | 0.525
110 | KKFPDYIQIAR [SGMS2_Y59_M64R_YF] | 0.649
111 | RFVSRYIFNRE [HLA-DQB1_Y62_T60S_YF] | 0.744
112 | FIIFIYAMKKK [SLCO1B1_Y645_L643F_YF] | 0.541
113 | NQDRTYFERVR [SPEN_Y632_S635R_YF] | 0.411
114 | LRNIDYYRLDG [ATRX_Y2083] | 0.776
115 | ADRNHYRRYRR [YBX1_Y145_P149R] | 0.499
116 | SDMGQYQCLVF [AXL_Y115_T112M] | 0.991

Row | Sequence | phosphorylation enrichment
117 | DDLEVYLKHLL [SACS_Y3477] | 0.503
118 | PLQKIYNYNVL [SLC4A1_Y553_T552I] | 1.05
119 | LLEGKYEWQEV [CDKN1B_Y74_P69L] | 1.43
120 | STSYDYCRVPM [BST2_Y8] | 10.3
121 | GRLGEYDIDEV [SMS_Y134_V132G] | 0.859
122 | HITQVYGFYDE [PPP2CA_Y127_Q122H] | 1.85
123 | RFLERYIFNPE [HLA-DPB1_Y57_R61P_YF] | 0.666
124 | KSLFHHRQYSA [CPS1_Y1491_Y1491H] | 0.491
125 | KKKKQYKDKFL [CASK_Y708_YF] | 0.634
126 | DRLANYLEKVR [KRT40_Y103_S102N] | 0.424
127 | CGTPEYRAPEI [PRKACA_Y205_L206R] | 0.605
128 | EQYELYCEMGS [CBL_Y371] | 8.68
129 | DQLVKYGVNPG [TMPO_Y127] | 0.325
130 | CDIPRYIVSQL [MAST2_Y461] | 0.577
131 | PFTDPYFDFEI [ZC3H18_Y371_A368T_YF] | 0.64
132 | GMEIVYVFVKK [DNAI2_Y5_YF] | 0.654
